The target of this assay is SARS-CoV-2 subdomain 1 (SBD) protein, D614G (SARS-CoV-2, UniProt P0DTC2). Briefly: ELISA. Conditions: both partners purified. For orientation: In an ELISA, binding on a coated surface is turned into a signal by an enzyme label.

The values below come from publication PMC9364786 (Journal of Virology, 2022).

B1: MAb 084-7D (antibody, V domains shown)
VH: EVQLLESGGGLVQPGGSLRLSCAASGFSFSSYAMNWVRQAPGKGLEWVSAISGGGDNIYYADSVKGRFTISRDNYKNTLHLQMKSLRAEDTAVYYCAKDHPSWGSSFLNWGQGILVIVSS
VL: DIQMTQSPSTLSASVGDRVTITCRASQSISSWLAWYQQKPGRAPKLLIYTASNLESGVPSRFSGSGSGTEFSLTISSLQPDDFATYYCQQYNSYSLTFGGGTRVEIK
notes: also called 084-7D MAb
For B1, the binding result is recorded as “no binding (tested: 5 μg/mL starting concentration)”.
